Measurements from doi:10.1101/2020.12.20.423689 (bioRxiv, 2020).

Biological target: mitoribosomal protein uL12m (human, UniProt P52815 37-198)
Assay: cryo-EM structure

binding result: binds
B1: human mitochondrial elongation factor G2 (EF-G2mt) (natural protein)
chain: MLTNLRIFAMSHQTIPSVYINNICCYKIRASLKRLKPHVPLGRNCSSLPGLIGNDIKSLHSIINPPIAKIRNIGIMAHIDAGKTTTTERILYYSGYTRSLGDVDDGDTVTDFMAQERERGITIQSAAVTFDWKGYRVNLIDTPGHVDFTLEVERCLRVLDGAVAVFDASAGVEAQTLTVWRQADKHNIPRICFLNKMDKTGASFKYAVESIREKLKAKPLLLQLPIGEAKTFKGVVDVVMKEKLLWNCNSNDGKDFERKPLLEMNDPELLKETTEARNALIEQVADLDDEFADLVLEEFSENFDLLPAEKLQTAIHRVTLAQTAVPVLCGSALKNKGIQPLLDAVTMYLPSPEERNYEFLQWYKDDLCALAFKVLHDKQRGPLVFMRIYSGTIKPQLAIHNINGNCTERISRLLLPFADQHVEIPSLTAGNIALTVGLKHTATGDTIVSSKSSALAAARRAEREGEKKHRQNNEAERLLLAGVEIPEPVFFCTIEPPSLSKQPDLEHALKCLQREDPSLKVRLDPDSGQTVLCGMGELHIEIIHDRIKREYGLETYLGPLQVAYRETILNSVRATDTLDRTLGDKRHLVTVEVEARPIETSSVMPVIEFEYAESINEGLLKVSQEAIENGIHSACLQGPLLGSPIQDVAITLHSLTIHPGTSTTMISACVSRCVQKALKKADKQVLEPLMNLEVTVARDYLSPVLADLAQRRGNIQEIQTRQDNKVVIGFVPLAEIMGYSTVLRTLTSGSATFALELSTYQAMNPQDQNTLLNRRSGLT
